Experimental data: patent US11278600B2, “Human alpha-galactosidase variants” (Codexis, Inc., priority 2014, dated 2022)

Columns and labels:
Assay type in all cases: biochemical
[1] = HTP-analysis of supernatants pretreated with acid (MUGal hydrolysis); conditions: challenge at pH 4.2; activity of the variant/activity of Rd2BB (SEQ ID NO: 10); yeast culture supernatant
How it was run: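 MUGal hydrolysis was tracked by fluorescence (Ex 355 nm, Em 448 nm) after a 30-180 min reaction at 37° C. in pH 4.8 McIlvaine/citrate buffer, stopped with 1 M sodium carbonate. Beforehand, yeast (INVSc1) culture supernatants carrying GLA variants were held 1-3 h at 37° C. in acidic McIlvaine buffer, pH 3.3-4.3.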

[2] = HTP-analysis of supernatants pretreated with base (MUGal hydrolysis); conditions: challenge at pH 7.6; activity of the variant/activity of Rd2BB (SEQ ID NO: 10); yeast culture supernatant
How it was run: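 Supernatants from INVSc1 yeast expressing GLA variants (SD-Ura, 66-84 h, 30° C) were mixed with McIlvaine buffer pH 7.0-8.2 or 200 mM sodium bicarbonate pH 9.1-9.7 and held 1-18 h at 37° C. Residual activity was then measured on MUGal at pH 4.8/4.3, 37° C, 30-180 min, by fluorescence (Ex 355/Em 448 nm).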

[3] = HTP-analysis of supernatants pretreated with bovine serum (MUGal hydrolysis); conditions: activity of the variant/activity of Rd2BB (SEQ ID NO: 10), yeast culture supernatant
How it was run: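 Yeast INVSc1 culture supernatants containing secreted GLA variants were mixed with bovine serum (20:80) and held 1 h at 37° C. Serum-treated samples then reacted with MUGal (4 mM stock) in citrate/McIlvaine buffer (pH 4.3/4.8) for 180 min at 37° C., were quenched with sodium carbonate, and read by fluorescence (Ex 355, Em 448 nm).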

[4] = HTP-analysis of yeast culture supernatants, no challenge (MUGal hydrolysis); conditions: activity of the variant/activity of Rd2BB (SEQ ID NO: 10), yeast culture supernatant
How it was run: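 GLA variants expressed in yeast INVSc1, secreted into SD-Ura broth over 66-84 h at 30° C; clarified supernatants tested without challenge. Supernatant mixed with McIlvaine buffer pH 4.8 and 2 mM MUGal (citrate/KCl, pH 4.6), 37° C for 30-180 min, carbonate-quenched, fluorescence Ex 355/Em 448 nm.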

Molecule	Relative Activity of GLA Variants After Challenge at pH 4.2 [1]	Relative Activity of GLA Variants After Challenge at pH 7.6 [2]	Relative Activity of GLA Variants After Challenge with Serum [3]	Relative Activity of GLA Variants After No Challenge (NC) [4]
270 (protein, Synthetic Polypeptide sequence of Variant No. 270 of mature Human GLA) LDNGLARTPTMGWLHWERFMCNLDCQEEPDSCISEKLFMEMAERMVSEGWKDAGYEYLCIDDCWMAPQRDSEGRLQADPQRFPHGIRQLANYVHSKGLKLGIYADVGNKTCAGFPGSFGYYDIDAQTFADWGVDLLKFDGCYYDSLENLADGYKHMSLALNRTGRSIVYSCEWPLYMWPFQKPNYTEIRQYCNHWRNFADIDDSWASIKSILDWTSFNQERIVDVAGPGGWNDPDMLVIGNFGLSWNQQVTQMALWAIMAAPLFMSNDLRHISPQAKALLQDKDVIAINQDPLGKQGYQLRQGDNFEVWERPLSGLAWAVAMINRQEIGGPRSYTIPVASLGKGVACNPGCFITQLLPVKRKLGFYEWTSRLRSHINPTGTVLLQLENTMQMSLKDLL	+ (+ = 0.5 to 1.5 relative activity over Rd2BB (SEQ ID NO: 10))	+ (+ = 0.5 to 1.5 relative activity over Rd2BB (SEQ ID NO: 10))	+ (+ = 0.5 to 1.5 relative activity over Rd2BB (SEQ ID NO: 10))	+ (+ = 0.5 to 1.5 relative activity over Rd2BB (SEQ ID NO: 10))
273 (protein, Synthetic Polypeptide sequence of Variant No. 273 of mature Human GLA) LDNGLARTPTMGWLHWERFMCNLDCQEEPDSCISEKLFMEMAERMVSEGWKDAGYEYLCIDDCWMAPQRDSEGRLQADPQRFPHGIRQLANYVHSKGLKLGIYADVGNKTCAGFPGSFGYYDIDAQTFADWGVDLLKFDGCYCDSLENLADGYKHMSLALNRTGRSIVYSCEWPLYMWPFQKPNYTEIRQYCNHWRNFADIDDSWASIKSILDWTSFNQERIVDVAGPGGWNDPDMLVIGNFGLSWNQQVTQMALWAIMAAPLFMSNDLRHISPQAKALLQDKDVIAINQDPLGKQGYQLRQGDNFEVWERPLSGLAWAVAMINRQEIGGPRSYTIAVASLGKGVACNPACFITQLLPVKRKLGFYDWDSRLRSHINPTGTVLLQLENTMQMSLKDLL	+ (+ = 0.5 to 1.5 relative activity over Rd2BB (SEQ ID NO: 10))	+ (+ = 0.5 to 1.5 relative activity over Rd2BB (SEQ ID NO: 10))	+ (+ = 0.5 to 1.5 relative activity over Rd2BB (SEQ ID NO: 10))	+ (+ = 0.5 to 1.5 relative activity over Rd2BB (SEQ ID NO: 10))
275 (protein, Synthetic Polypeptide sequence of Variant No. 275 of mature Human GLA) LDNGLARTPTMGWLHWERFMCNLDCQEEPDSCISEKLFMEMAERMVSEGWKDAGYEYLCIDDCWMAPQRDSEGRLQADPQRFPHGIRQLANYVHSKGLKLGIYADVGNKTCAGFPGSFGYYDIDAQTFADWGVDLLKFDGCYCDSLENLADGYKHMSLALNRTGRSIVYSCEWPLYMWPFQKPNYTEIRQYCNHWRNFADIDDSWASIKSILDWTSRNQERIVDVAGPGGWNDPDMLVIGNFGLSWDQQVTQMALWAIMAAPLFMSNDLRHISPQAKALLQDKDVIAINQDPLGKQGYQLRQGDNFEVWERPLSGLAWAVAMINRQEIGGPRSYTIPVASLGKGVACNPACFITQLLPVKRKLGFYEWTSRLRSHINPTGTVLLQLENTMQMSLKDLL	++ (++ = 1.5 to 2.5 relative activity over Rd2BB (SEQ ID NO: 10))	++ (++ = 1.5 to 2.5 relative activity over Rd2BB (SEQ ID NO: 10))	++ (++ = 1.5 to 2.5 relative activity over Rd2BB (SEQ ID NO: 10))	++ (++ = 1.5 to 2.5 relative activity over Rd2BB (SEQ ID NO: 10))
274 (protein, Synthetic Polypeptide sequence of Variant No. 274 of mature Human GLA) LDNGLARTPTMGWLHWERFMCNLDCQEEPDSCISEKLFMEMAERMVSEGWKDAGYEYLCIDDCWMAPQRDSEGRLQADPQRFPHGIRQLANYVHSKGLKLGIYADVGNKTCAGFPGSFGYYDIDAQTFADWGVDLLKFDGCYCDSLENLADGYKHMSLALNRTGRSIVYSCEWPLYMWPFQKPNYTEIRQYCNHWRNFADIDDSWASIKSILDWTSRNQERIVDVAGPGGWNDPDMLVIGNFGLSWNQQVTQMALWAIMAAPLFMSNDLRHISPQAKALLQDKDVIAINQDPLGKQGYQLRQGDNFEVWERPLSGLAWAVAMINRQEIGGPRSYTIAVASLGKGVACNPGCFITQLLPVKRKLGFYEWTSRLRSHINPTGTVLLQLENTMQMSLKDLL	+ (+ = 0.5 to 1.5 relative activity over Rd2BB (SEQ ID NO: 10))	+ (+ = 0.5 to 1.5 relative activity over Rd2BB (SEQ ID NO: 10))	+ (+ = 0.5 to 1.5 relative activity over Rd2BB (SEQ ID NO: 10))	+ (+ = 0.5 to 1.5 relative activity over Rd2BB (SEQ ID NO: 10))
272 (protein, Synthetic Polypeptide sequence of Variant No. 272 of mature Human GLA) LDNGLARTPTMGWLHWERFMCNLDCQEEPDSCISEKLFMEMAERMVSEGWKDAGYEYLCIDDCWMAPQRDSEGRLQADPQRFPHGIRQLANYVHSKGLKLGIYADVGNKTCAGFPGSFGYYDIDAQTFADWGVDLLKFDGCYCDSLENLADGYKHMSLALNRTGRSIVYSCEWPLYMWPFQKPNYTEIRQYCNHWRNFADIDDSWASIKSILDWTSFNQERIVDVAGPGGWNDPDMLVIGNFGLSWNQQVTQMALWAIMAAPLFMSNDLRHISPQAKALLQDKDVIAINQDPLGKQGYQLRQGDNFEVWERPLSGLAWAVAMINRQEIGGPRSYTIAVASLGKGVACNPACFITQLLPVKRKLGFYEWTSRLRSHINPTGTVLLQLENTMQMSLKDLL	+ (+ = 0.5 to 1.5 relative activity over Rd2BB (SEQ ID NO: 10))	+ (+ = 0.5 to 1.5 relative activity over Rd2BB (SEQ ID NO: 10))	+ (+ = 0.5 to 1.5 relative activity over Rd2BB (SEQ ID NO: 10))	+ (+ = 0.5 to 1.5 relative activity over Rd2BB (SEQ ID NO: 10))
276 (protein, Synthetic Polypeptide sequence of Variant No. 276 of mature Human GLA) LDNGLARTPTMGWLHWERFMCNLDCQEEPDSCISEKLFMEMAERMVSEGWKDAGYEYLCIDDCWMAPQRDSEGRLQADPQRFPHGIRQLANYVHSKGLKLGIYADVGNKTCAGFPGSFGYYDIDAQTFADWGVDLLKFDGCYCDSLENLADGYKHMSLALNRTGRSIVYSCEWPLYMWPFQKPNYTEIRQYCNHWRNFADIDDSWASIKSILDWTSRNQERIVDVAGPGGWNDPDMLVIGNFGLSWDQQVTQMALWAIMAAPLFMSNDLRHISPQAKALLQDKDVIAINQDPLGKQGYQLRQGDNFEVWERPLSGDAWAVAMINRQEIGGPRSYTIPVASLGKGVACNPGCFITQLLPVKRKLGFYDWDSRLRSHINPTGTVLLQLENTMQMSLKDLL	+++ (+++ = >2.5 relative activity over Rd2BB (SEQ ID NO: 10))	+++ (+++ = >2.5 relative activity over Rd2BB (SEQ ID NO: 10))	+++ (+++ = >2.5 relative activity over Rd2BB (SEQ ID NO: 10))	+++ (+++ = >2.5 relative activity over Rd2BB (SEQ ID NO: 10))
271 (protein, Synthetic Polypeptide sequence of Variant No. 271 of mature Human GLA) LDNGLARTPTMGWLHWERFMCNLDCQEEPDSCISEKLFMEMAERMVSEGWKDAGYEYLCIDDCWMAPQRDSEGRLQADPQRFPHGIRQLANYVHSKGLKLGIYADVGNKTCAGFPGSFGYYDIDAQTFADWGVDLLKFDGCYCDSLENLADGYKHMSLALNRTGRSIVYSCEWPLYMWPFQKPNYTGIRQYCNHWRNFADIDDSWASIKSILDWTSFNQERIVDVAGPGGWNDPDMLVIGNFGLSWNQQVTQMALWAIMAAPLFMSNDLRHISPQAKALLQDKDVIAINQDPLGKQGYQLRQGDNFEVWERPLSGLAWAVAMINRQEIGGPRSYTIPVASLGKGVACNPGCFITQLLPVKRKLGFYEWTSRLRSHINPTGTVLLQLENTMQMSLKDLL	+ (+ = 0.5 to 1.5 relative activity over Rd2BB (SEQ ID NO: 10))	+ (+ = 0.5 to 1.5 relative activity over Rd2BB (SEQ ID NO: 10))	+ (+ = 0.5 to 1.5 relative activity over Rd2BB (SEQ ID NO: 10))	− (− = <0.5 relative activity over Rd2BB (SEQ ID NO: 10))
